# Assay results reported in the nanobody polyreactivity screen of Harvey et al. (2022).
# Assay: yeast display, Sf9 membrane polyspecificity reagent, FACS + sequencing; frameworks hold sequencing errors
# Procedure, shortened: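 Sorting gates, low and high (top ~1%), were placed on anti-HA fluorescence to track expression and on streptavidin fluorescence to track reagent binding. A clone's polyreactivity label is taken from the gate it came out of. The reagent was 10% biotinylated, detergent-solubilized Sf9 membrane, applied for 1 hour at 4 °C to galactose-induced yeast display cells.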
row,Sequence,polyreactivity (PSR sort gate)
1,QVQLVESGGGLVQAGGSLRLSCAASGRIKGKNAMGWYRQAPGKERELVAAISSTGSTYYADSVKGRFSISRDNAKNTVYLQMNSLKPEDTAVYYCAATVEWWPGGWFDYWGQGTQVTVSS,high polyreactivity
2,QVQLVESGGGLVQAGGSLRLSCAASGRTFNKYAMGWYRQAPGKERELVAAIRDGSGGRTNYADSVKGRFTISRDNAKNTVYLQMNSLKPEDTAVYYCNADDSKYPYYTDDYWGQGTQVTVSS,low polyreactivity
3,QDQLVESGGGLVQAGGSLRLSCAASGLTFLWYNMGWYRPAPGKERELVAGITWSGGSTYYADSVKGRFTISRDNAKNTVYLQMNSLKPEDTAVYYCAASFLWKVTGEYYYWGQGTQVTVSS,high polyreactivity
4,QVQLVESGGGLVQAGGSLRLSCAPSGRTFVDYDMGWYRQAPGKERELVADINSGGSTYYADSVKGRFTISRDNAKNTVYLQMNSLKPEDTAVYYCAARYTFDRWKFGYWGQGTQVTVSS,high polyreactivity
5,QVQLVESGGGLVQAGGSLRLSCAASGFIFYYNAMGRYRQAPGKERELVATIRGSGGSTYYADSVKGRFTISRDNAKNTVYLQMNSLKPEDTAVYYCATTIYGLTSRLYYWGQGTQVTVSS,high polyreactivity
6,QVQLVESGGGLVQPGGILRLSCAASGYTFQVYAMGWYRQAPGKEREMVASIRWRGGRTYYADSVKGRFTISRDNAKNTVYLQMNSLKPEDTAVYYCAARQYVIYQTYYTYYYWGQGTQVSVSS,high polyreactivity
7,QVQLVESGGGLVQTGGSLRLSCAASGRIFRSYAMGWNRQAPGKERELVAAISGSGGSTYYADSVKGRFTISRDNAKNTVSLQMNSLKPEDTAVYYCTAGKVHPFSTRFYYWGQGTQVTVSS,low polyreactivity
8,QVQLVESGGGLVQAGGSLRLSCAASGFIFSVNAMGWYRQAPGKERELVAAISTNTGRTYYADSVKGRFTISRDNAKNTVYLQMNSLKPEDTAVYYCAADGPTYWAVRGDYWGQGTQVTVSS,low polyreactivity
9,QVQLVESGGGLVQAGGSLRLSCAASGSIFATNAMGCYRQAPGKERELVAAISRSGASTYYADSVKGRFTISRDNAKHTVYLQMNRLKPEDTAVYYCNKVLYRDAYQSYGFDYWGQGTQVTVSS,high polyreactivity
10,QVQLVESGGGLVQAGGSLRLSCAASGGTFDTYAMGWYRQAPGKERELVAGIDWSGGSTYYADSVKGRFTISRDNAKNTVYLQMNSLKPEDTAVYYCAADYYYPSQMDYWGQGTQVTVSS,low polyreactivity
11,QVQLVESGGGLVQAGGSLRLSCAASGSIFTGYTMGRYRQATGKERELVAAITWNGGSTYYADSVKGRFTISRDNAKNTVYLQMNSLKPEDTAVYYCAAVPYTPSPYTYGYWGQGTQVTVSS,high polyreactivity
12,QVQLVVSGGGLVQAGGRLRLSCAASGSSFVGYAMGWYRQAPGKERELVAAISRRGGSTYYADSVKGRFTISRDNAKNTVYLQMNRLKPEDTSVYYFAARFKVSYYNLYSYGYWRQGTQVTVSS,high polyreactivity
13,QVQLVESGGGLVQAGGSLRLSCAASGRIFTKYAMGWYRQAPGKDRELVAAISYRGGSTYYADSVKGRFTISRDNAQNTVYLQMNSLKPEDTAVYYCATSWTPNYFVTSDYWGQGTQVTVSS,high polyreactivity
14,QVQLVESGGGLVQAGGSLRLSCAASGSIFHPNAMGWYRQAPGKERELVAAITKSGGSTYYADSVKGRFTISRDNAKNTVYLQMNSLKPEDTAVYYCAKVSRATVTYDYWGQGTQVTVSS,high polyreactivity
15,QVQLVESGGCLFQAGGSLRLSCAASGFIFGHNAMGWYRQAPGTERELVAAITWSGGRTYYADSVKGRFTISRDNAKNTVYLQMISLKPEDKAVDYCNRRGRWRKYDYWGQGTQVTVSS,high polyreactivity
16,QVQLVESGGGLVQAGGSLRLSCADSGFTFRYNAIGSYRQAPGKERELVARISSTGGGTSYADSVKGRFTISRDNAKNTVYLQMNSLKPEDTAVYYCNKRSWGYGRGLPDSDYWGQGTQVTVSS,low polyreactivity
17,QVQLVESGGCLVQAGGSLRLSCAASGSTFDYYMGWYRQAPGKERELVAAITYSGGSTYYADSVKGRFTISRDNAKNSVYLQMNSLNPEDTAVYYCAKDRSTFDDFYSNYYWGQGTQVTVSS,low polyreactivity
18,QVQLVESGGGLVQAGGSLRLSCAAYGSIFGSNAIGCYIQAPGKERELVAAISSGSTYYADTVKGRFTISRDNAKNTVYLQMNSLKPEDNAVYYCNARSLLYEFDYWGQGTQVTVSS,low polyreactivity
19,QVQLVESGGGLYQAGGSLRLSSAASGRIFPWNTMGWYRQAPGKERELVAGINNGDRTYYADSVKGRFTISRDNAKNTVYLQMNSQKPEDTAVYYCAVDTWYFLFQYGYYQEGDYWGQGTQVTVSS,low polyreactivity
20,QVQLVESGGGLVQAGGSLRLSCAASGITLFYYAMGWYRQAPGKERELVAVISASGGSTYYADSVKGRFTISRDNAKNTVYIQMNSLKPEDTAVYYCAAVAYWRSSSWYYYWGQGTQVTVSS,high polyreactivity
21,QVQLVESGGGLVQAGGSLRLSCAASGSIFEPYVMGWYRQAPGKERELVAAIRQTGGSTYYADSVKGRFTISRDNAKNTVFLQMNSLKPEDTAVYYCNAKWYGWQRGTVKYDYWGQGTQVTVSS,low polyreactivity
22,QVQLVESGGGLVQAGGSLRLSCAASGITFNKYAMGWYRQAPGKERELVAAISSRGGSTYYADSVKGRFTISRDNAKNTVYLQMNSLKPEDTAVYYCNADFYRASSNFDYWGQGTQVSVSS,high polyreactivity
23,QVQLVESGGGLLQAGGSLRLSCAASGITFTGYAMGWYRQAPGKERELVAVISETGGSTYADSVKGRFTISRDNAKNTVYLQMNSLKPEDTAVYYCAARLWWPYSTAWAKMDYWGQGTQVTVSS,low polyreactivity
24,QVQVVESGGGLVQPGCSLRLSCAASGNIFVYNDMGWYRQAPGKERELVAAIDSGGSTYYADSVKGRFTISRDNAKNNVYLKMNSLKQEDTAVYYCAADYYCTYRTIYYYWGQGTQVTVSS,low polyreactivity
25,QVQLVESGGVLVQAGGSLRLSCAASGRIFDDYAMGWYRQAPGKERELVAAIRSGGNSNYADSVKGRFTISRDNAKNTVYLQMNSLTPEETAVYYCAADEVRSAWRCSSPPDYDHWGQGTHVTVSS,low polyreactivity
26,QVQLVESGGGLVQAGGSLRLSCAASGRTFSAYAMGWYRQAPGKERELVAAISRSGGSTYYADSVKGRFTISRDNAKNTVYLQMNSLKPEDTAVYYCAAKGGSGLYYWGQGTQVTVSS,high polyreactivity
27,QVQLVESGGGIVQAGGSLRLSCAASGRTFEQNVMRWYRQAPGKERELVAAITTGGSTNYADSVKGRFTISRDNAKNTVYLQMNSLKPEDTAVYYCAADRYLGGDYDYWGQGTQVTVSS,low polyreactivity
28,QVQIVESGGGLVQAGGSLRLSCAASGTTFRFYAMGWYRQAPGKERELVAAIRRGGSTYYADSVKGRFTISRDNAKNTVYLQMNSLKPEDTAVYFCAAEPGYYSRPDYRVYRLYYWGLGTQVTVSS,high polyreactivity
29,QVQLVESGGGLVQAGGSLRLSCAASGLTLPWYAMGWYRQAPGKERELVAAITWDGTRTYYADSVKGRFTISRDNAKNTVYLQMNSLKPEDTAVFYCNARRVRGTFYRSGVVGYSYWGHGTQVTVSS,high polyreactivity
30,QVQLVESGGGLVQAGGSLRLSCAASGFIFPRYFMGLYRQAPGKERELVAAINSDISTNYADSVKWRFTISRDNAKNTVYLQMNSLKPEDTAVYYCAADRWDDPWEFDYWGQCTQVTVSS,low polyreactivity
